{"source": "patent US20060275758A1", "about": "“Use of pp2a phosphatase modulators in the treatment of mental disorders” (priority 2002, published 2006)", "molecules": {"B1": {"name": "GST-PPP2R2C radiolabeled recombinant protein (other)", "chain": "MGEDTDTRKINHSFLRDHSYVTEADIISTVEFNHTGELLATGDKGGRVVIFQREPESKNAPHSQGDYDVYSTFQSHEPEFDYLKSLEIEEKINKIKWLPQQNAAHSLLSTNDKTIKLWKITERDKRPEGYNLKDEEGKLKDLSTVTSLQVPVLKPMDLMVEVSPRRIFANGHTYHINSISVNSDCETYMSADDLRINLWHLAITDRSFNIVDIKPANMEDLTEVITASEFHPHHCNLFVYSSSKGSLRLCDMPAAALCDKHSKLFEEPEDPSNRSFFSEIISSVSDVKFSHSDRYMLTRDYLTVKVWDLNMEARPIETYQVHDYLRSKLCSLYENDCIFDKFECAWNGSDSVIMTGAYNNFFRMFDRNTKRDVTLEASRESSKPRAVLKPRRVCVGGKRRRDDISVDSLDFTKKILHTAWHPAENIIAIAATNNLYIFQDKVNSDMH", "modifications": "radiolabeled with [32P]-γATP by Protein Kinase A Catalytic Subunit", "notes": "Used as the soluble probe in the solid phase overlay assay; also called PP2A/Bγ; pGEX-2TK-PPP2R2C; not shown: glutathione S-transferase encoded by the pGEX-2TK vector (Amersham Pharmacia Biotech)"}}, "key": {"[1]": {"system": "PP2A phosphatase", "experiment": "In vitro dephosphorylation of phosphorylated GST-2E11 with HTB-14 whole cell extracts", "type": "biochemical, Human", "conditions": "HTB-14 cell extracts (500 μg) plus 400 μM okadaic acid, 30 min, room temperature", "method": "In vitro phosphorylated GST-2E11 fusion protein was incubated at room temperature for 30 min with 500 μg of whole cell extracts of Human glioblastoma, astrocytoma cell line (ATCC number: HTB-14) with or without 400 μM of the PP2A phosphatase inhibitor okadaic acid (Sigma). HTB-14 whole cell extracts were prepared as follow: cells were washed three times with ice-cold TBS buffer (10 mM Tris-HCl [pH 8.0], 120 mM NaCl) and lysed at 4° C. for 30 min in EBC buffer (50 mM Tris-HCl [pH 8.0], 120 mM NaCl, 0.5% Nonidet P-40). Then the lysate was centrifugated for 10 min at 13.000×g at 4° C. to pellet cell debris. Proteins present in the supernatant were quantified by the standard Bradford's method (Bio-Rad Protein Assay). The proteins were then resolved by 10% SDS-PAGE, and visualized by autoradiography.\nThe phosphorylated radiolabeled GST-2E11 proteins obtained from the previous assay were incubated in the presence of HTB-14 cell extracts containing the PP2A phosphatase to determine whether PP2A is capable of dephosphorylating GST-2E11 proteins. In this experiment, a protein that is dephosphorylated by PP2A is not radioactive after incubation in the presence of HTB-14 cell extracts any more. Thus dephosphorylation of the GST-2E11 protein is monitored by disappearance of the signal visualized by autoradiography. […]"}, "[2]": {"molecular_target": "GSK-3β", "experiment": "In vitro phosphorylation assay of GST-2E11 (KCNQ2-15b fusion protein) with recombinant GSK-3β kinase and PKA", "type": "biochemical", "conditions": "LiCl added to the kination mix (0, 8.3, 25, 75, 225 mM); autoradiography band at about 45 kD; read-out: LiCl concentration at which the phosphorylation state of GST-2E11 was reduced by 50%", "method": "Expression and purification of the GST-2E11 fusion protein were performed as described above. Beads with bound fusion protein corresponding to 1 ml of bacterial clear lysate were washed three times in NETN and one time with HMK buffer without DTT (20 mM Tris-HCl [pH 7.5], 120 mM NaCl, 12 mM MgCl2). Beads were resuspended in 240 μl of reaction mix (24 μl of 10× HMK Buffer with 20 mM DTT, 40 units of Protein Kinase A Catalytic Subunit [PKA from bovine heart, 250 units/vial, Sigma] in 40 mM DTT, 5 μl of 24 mM ATP and 207 μl of distilled water) and incubated for 30 min at room temperature. Beads were then washed three times in NETN buffer and one time in GSK -3β reaction buffer (20 mM Tris-HCl [pH 7.5], 10 mM MgCl2, 5 mM DTT) (New England Biolabs). Beads were then resuspended in 50 μl of reaction mix (5 μl of 10× GSK-3β reaction buffer, 1 μl of [^32P]γATP 10 mCi/ml, 50 U of recombinant GSK-3β[New England Biolabs], and distilled water for a final volume of 50 μl) and incubated at room temperature for 30 min. After three washes in NETN buffer, phosphorylated proteins were boiled in 2× Sample Buffer (125 mM Tris-HCl [pH 6.8], 4% SDS, 20% glycerol, 1.4 M β-Mercapto ethanol), resolved by 10% SDS-PAGE, and visualized by autoradiography.\nIn this phosphorylation assay, non-radiolabeled polypeptides to be tested are incubated in the presence of GSK-3β, PKA and radioactive ATP. […]"}, "[3]": {"system": "GST-2E11 recombinant protein"}, "[4]": {"molecular_target": "T1, GST recombinant protein (UniProt P08515 1-218 = GST)", "T1 construct": "Negative control in the overlay assay; also called Glutathione S-transferase; pGEX2TK plasmid product", "experiment": "solid phase overlay assay: GST blotted on nitrocellulose, probed with 32P-labeled GST-PPP2R2C, autoradiography", "description": "After 4.5 hr of incubation, the membrane was washed with Hyb75 buffer, 1 mM DTT, 1% (w/v) non-fat dry milk three times for 15 min at room temperature. The blots were analyzed by autoradiography."}}}
{"molecule": "C=C1[C@@H](O)[C@@H]2O[C@]3(CC[C@H](/C=C/[C@@H](C)[C@@H]4CC(C)=C[C@@]5(O[C@H](C[C@@](C)(O)C(=O)O)CC[C@H]5O)O4)O3)CC[C@H]2O[C@@H]1[C@@H](O)C[C@H](C)[C@H]1O[C@@]2(CCCCO2)CC[C@H]1C", "note": "[okadaic acid]", "values": [{"measurement": "intensity of the GST-2E11 band versus the band of phosphorylated GST-2E11 (reference)", "setting": "[1]", "result": "only slightly weaker"}]}
{"molecule": "[Cl-].[Li+]", "note": "[LiCl]", "values": [{"measurement": "IC50", "setting": "[2]", "result": "~50", "unit": "mM"}]}
{"molecule": "recombinant GSK-3β kinase (New England Biolabs)", "values": [{"measurement": "phosphorylation of GST-2E11 with 5 µg of CREB phosphopeptides added as competitor", "setting": "[3]", "result": "A band did still appear at a position corresponding to the size of GST-2E11, but the intensity of the band was very significantly lower"}, {"measurement": "phosphorylation with [32P]γATP, band at about 45 kD by autoradiography", "setting": "[3]", "result": "Thus the GST-2E11 protein is phosphorylated by GSK-3β and PKA in vitro"}]}
{"molecule": "PP2A phosphatase in HTB-14 whole cell extracts", "values": [{"measurement": "dephosphorylation of 32P-phosphorylated GST-2E11 (loss of the autoradiography band), with or without okadaic acid", "setting": "[3]", "result": "In the line loaded with GST-2E11 fusion proteins incubated in the presence of HTB-14 cell extracts, the band had an extremely weaker intensity"}]}
{"molecule": "Protein Kinase A Catalytic Subunit (PKA from bovine heart, Sigma)", "values": [{"measurement": "phosphorylation of GST-2E11 with 5 µg of CREB phosphopeptides added as competitor", "setting": "[3]", "result": "A band did still appear at a position corresponding to the size of GST-2E11, but the intensity of the band was very significantly lower"}, {"measurement": "phosphorylation with [32P]γATP, band at about 45 kD by autoradiography", "setting": "[3]", "result": "Thus the GST-2E11 protein is phosphorylated by GSK-3β and PKA in vitro"}]}
{"molecule": "B1", "values": [{"measurement": "binding result", "setting": "[4]", "result": "no binding (tested: 100 ng, 10 ng and 0.1 ng of GST loaded)"}]}
